In PMC10511320, “R-loop-dependent promoter-proximal termination ensures genome stability”:

B1: Blunt-end dsDNA (30 bp) random (dsDNA)
DNA 1: GAGCTACCAGCTACCCCGTATGTCAGAGAG
DNA 2: CTCTCTGACATACGGGGTAGCTGGTAGCTC
B2: oligo (dT)48 (ssDNA)
DNA: TTTTTTTTTTTTTTTTTTTTTTTTTTTTTTTTTTTTTTTTTTTTTTTT

Key:
SSB1 [1] = biological target: T1, SSB1 (human, UniProt Q9BQ15 1-211); test: EMSA; EMSA: 100 nM Cy3 probe, 20 mM Tris-HCl pH 7.5, 50 mM NaCl, 5 mM MgCl2, 0.2 mM EDTA, 1 mM DTT, on ice 30 min; 6% native PAGE, 0.5x TBE, cold room; conditions: protein: recombinant; blunt
SSB1 [2] = biological target: T1, SSB1; test: EMSA; ED Fig. 2a ssDNA taken as (dT)48, the only listed ssDNA oligo; EMSA: 100 nM Cy3 probe, 20 mM Tris-HCl pH 7.5, 50 mM NaCl, 5 mM MgCl2, 0.2 mM EDTA, 1 mM DTT, on ice 30 min; 6% native PAGE, 0.5x TBE, cold room; conditions: protein: recombinant; label: 3' Cy3

T1 sequence (Q9BQ15 whole entry): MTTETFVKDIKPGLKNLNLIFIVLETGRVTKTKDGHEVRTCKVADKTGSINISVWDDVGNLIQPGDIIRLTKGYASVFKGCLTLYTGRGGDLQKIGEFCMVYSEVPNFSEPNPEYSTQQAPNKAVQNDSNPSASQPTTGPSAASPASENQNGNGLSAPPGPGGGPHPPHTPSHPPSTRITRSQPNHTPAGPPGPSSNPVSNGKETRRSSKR

Binder | binding result (SSB1 [1]) | binding result (SSB1 [2])
B1 | no binding | 
B2 |  | binds
